The values below come from PMC2879510.

The target of the series is U1A-Myc-His (UniProt P09012 1-102). Description: competition.
U1A-Myc-His, sequence (P09012 1-102): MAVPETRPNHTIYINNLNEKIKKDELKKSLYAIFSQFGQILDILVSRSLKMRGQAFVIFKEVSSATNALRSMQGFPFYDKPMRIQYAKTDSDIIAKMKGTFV

With GGCAUAUCCAGUGCACCAGGGUAUGCC (structured_RNA) [hpIIΔDIS (U1 hpII Δ16/18A/10G)], the binding result was “binds”.
